This note sets out measurements from patent US20090098108A1.

Data set [1] has as its target GLP-1 receptor on Rinm cells. Nature of the data set: cell-based or functional assay.
The target of the next data set is GLP-1 peptide (UniProt P01275).
For data set [2], the target named is wt GLP-1 mimetibody construct (GLP-1 MMB), IgG1 scaffold (UniProt P01275).
Sequence of wt GLP-1 mimetibody construct (GLP-1 MMB), IgG1 scaffold (P01275 whole entry, looked up): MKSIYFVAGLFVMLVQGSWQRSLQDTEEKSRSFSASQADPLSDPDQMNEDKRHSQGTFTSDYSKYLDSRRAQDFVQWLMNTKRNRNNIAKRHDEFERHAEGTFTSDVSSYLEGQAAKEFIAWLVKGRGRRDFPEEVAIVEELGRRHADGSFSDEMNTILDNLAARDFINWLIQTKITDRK

Sequence of GLP-1 peptide (P01275 98-127): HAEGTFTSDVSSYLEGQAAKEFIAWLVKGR

“GLP-1 peptide (from UniProt P01275 98-127)” returned a concentration dependent cAMP activity, EC50 (Rinm cells) in data set [1] of 0.4 nM. Consider DPP-IV (R&D Systems), for which the “DPP-IV cleavage assay (intact peptide by GLP-1 Active ELISA)” value with GLP-1 peptide is “The GLP-1 MMB was significantly more resistant to cleavage by DPP-IV, relative to the GLP-1 peptide”. For the same substance, in data set [2], the “DPP-IV cleavage assay (intact MMB by GLP-1 Active ELISA)” value was “The GLP-1 MMB was significantly more resistant to cleavage by DPP-IV, relative to the GLP-1 peptide”.

As to “wt GLP-1 mimetibody construct (GLP-1 MMB), IgG1 scaffold (from UniProt P01275 98-128) (Fc fusion)”, the concentration dependent cAMP activity, EC50 (Rinm cells) in data set [1] came to 11 nM.
